Results published in the Human Domainome abundance scans (Beltran et al. 2025).

B1: Calcium-binding protein 2, residues 155 to 219; numbered along this chain, Q9NPB3 (parent)
chain: RELRDAFREFDTNGDGRISVGELRAALKALLGERLSQREVDEILQDVDLNGDGLVDFEEFVRMMS

Variants of: B1
Assay: abundance fitness (aPCA) (normalised: wild type 0, dead -1); higher = more abundant; growth selection in yeast, the domain comes from the species named
Settings: Homo sapiens

Abundance fitness, by site and new letter:
T12: R -0.201; S -0.035; V -0.351; W -0.538
N13: A -0.537; C -0.489; D -0.019; E -0.459; G -0.693; H -0.644; K -0.676; L -0.974; M -0.797; P -0.811; Q -0.924; R -0.477; S -0.555; T -0.404; V -0.668; Y -1.12
G14: C -0.264; D -0.188; E -0.165; K 0.003; L -0.226; M -0.308; P -0.621; Q 0.023; R -0.018; S -0.198; T -0.547; V -0.672; W -0.718
G16: A -0.332; C -0.527; D 0.023; E -0.1; F -0.992; H -0.897; I -1.2; L -0.669; M -0.376; P -1.19; Q -0.223; R -0.428; S -0.261; V -1.14; W -0.454; Y -0.743
R17: A 0.001; C 0.141; E -0.295; F -0.021; G 0.045; I -0.141; K 0.017; L 0.045; M -0.099; N -0.14; P -0.701; Q -0.193; S -0.087; T -0.217; V -0.158; W -0.159; Y -0.02
I18: A -0.736; C -0.311; D -0.965; E -1.01; F -0.747; G -0.97; H -0.917; K -0.691; L 0.114; M 0.081; N -1.01; P -1.15; R -0.808; T -0.763; V -0.045; Y -0.592
S19: A -0.372; D -0.059; E -0.169; F -0.462; G -0.045; H -0.459; I -0.462; K -0.529; L -0.532; M -0.285; N 0.049; P -0.43; Q -0.584; R -0.687; T 0.227; V -0.517; W -0.58; Y -0.822
V20: A -0.317; C 0.061; G 0.004; H -0.043; K -0.639; L 0.093; M 0.066; N 0.081; P 0.163; Q -0.005; S -0.164; T -0.146
G21: A 0; C -0.244; D 0.141; F 0.102; H -0.328; I -0.134; K -0.193; L -0.049; M -0.09; N -0.064; P 0.044; Q -0.001; R -0.196; S -0.026; T 0.01; V -0.061; W -0.423
E22: A -0.342; C -0.469; D -0.49; G 0.093; I -0.729; M -0.535; N -0.726; P -1.05; Q -0.357; R -0.549; T -0.486; V -0.489; W -0.837; Y -0.814
L23: A 0.118; C -0.139; E -0.663; F -0.235; G -0.193; M 0.025; N -0.213; P -0.592; Q -0.468; S -0.238; T -0.023; V -0.133; Y -0.249
A25: C 0.177; D 0.045; E 0.096; F -0.093; G 0.01; H -0.012; L 0.139; M 0.019; N -0.109; P -0.022; Q -0.068
